Source: patent US20260242478A1 (published 2026)
Where no end group is shown, it is not given here.

B1: Phage-711 (peptide)
peptide: YCDGHSDQYMWKCL
notes: Tested as clonal phage supernatant
B2: Phage-713 (peptide)
peptide: YCEGHAAEYMMKCL
notes: as for B1
B3: Phage-538 (peptide)
peptide: YCDGHLPEYREKCF
modifications: cysteine pairing not given here; also: displayed on phage as fusion to pIII, linker, pIII sequence and order not given here
notes: Clonal phage supernatant; not shown: pIII filament protein of the bacteriophage to which the peptide is fused
B4: Phage-25 (peptide, not shown: large carriers)
peptide: MDWCPRDLWDLCFA
modifications: cysteine pairing not given here; also: phage-displayed pIII fusion, pIII and linker not given here
notes: Clonal phage supernatant
B5: Phage-710 (peptide)
peptide: YCDGHSPIYMSKCL
notes: as for B1
B6: Phage-30 (peptide, not shown: large carriers)
peptide: MDWCPRDMWDECFA
modifications: cysteine pairing not given here; also: peptide displayed as fusion to phage pIII
notes: Clonal phage supernatant
B7: Phage-31 (peptide, not shown: large carriers)
peptide: MDWCPRDMWSECFA
notes: Clonal phage supernatant
B8: Phage-717 (peptide)
peptide: YCVGHLPQYMEKCL
notes: as for B1
B9: Phage-27 (peptide, not shown: large carriers)
peptide: MDWCPRDLWHLCFS
modifications: cysteine pairing not given here; also: displayed on phage as fusion to pIII, linker and pIII sequence not given here
notes: Clonal phage supernatant
B10: Phage-714 (peptide)
peptide: YCAGHLPMYMHKCL
notes: as for B1
B11: Phage-715 (peptide)
peptide: YCDGHSQEYIAKCL
notes: as for B1
B12: Phage-529 (peptide)
peptide: YCQGHLPMYMAKCL
modifications: cysteine pairing not given here; also: displayed on phage as fusion to pIII, linker, pIII sequence and order not given here
notes: as for B3
B13: Phage-532 (peptide)
peptide: YCQGHLPMYMEKCL
modifications: cysteine pairing not given here; also: displayed on phage as fusion to pIII, linker, pIII sequence and order not given here
notes: as for B3
B14: Phage-527 (peptide)
peptide: YCDGHLPEYMSKCL
modifications: cysteine pairing not given here; also: displayed on phage as fusion to pIII, linker, pIII sequence and order not given here
notes: as for B3
B15: Phage-536 (peptide)
peptide: YCDGHLPIYMSKCL
modifications: cysteine pairing not given here; also: displayed on phage as fusion to pIII, linker, pIII sequence and order not given here
notes: as for B3
B16: Phage-530 (peptide)
peptide: YCDGHLPEYMMKCL
modifications: cysteine pairing not given here; also: displayed on phage as fusion to pIII, linker, pIII sequence and order not given here
notes: as for B3
B17: Phage-528 (peptide)
peptide: YCDGHLPQYMAKCL
modifications: cysteine pairing not given here; also: displayed on phage as fusion to pIII, linker, pIII sequence and order not given here
notes: as for B3
B18: Phage-533 (peptide)
peptide: YCEGHLPQYMAKCL
modifications: cysteine pairing not given here; also: displayed on phage as fusion to pIII, linker, pIII sequence and order not given here
notes: as for B3
B19: Phage-531 (peptide)
peptide: YCDGHSPMYILKCL
modifications: cysteine pairing not given here; also: displayed on phage as fusion to pIII, linker, pIII sequence and order not given here
notes: as for B3
B20: Phage-28 (peptide, not shown: large carriers)
peptide: MDWCPRDLWSECFF
notes: Clonal phage supernatant
B21: Phage-535 (peptide)
peptide: YCDGHLPMYMQKCL
modifications: cysteine pairing not given here; also: displayed on phage as fusion to pIII, linker, pIII sequence and order not given here
notes: as for B3
B22: Phage-526 (peptide)
peptide: YCEGHSPEYMAKCL
modifications: cysteine pairing not given here; also: displayed on phage as fusion to pIII, linker, pIII sequence and order not given here
notes: as for B3
B23: Phage-537 (peptide)
peptide: YCEGHSWANLGKCL
modifications: cysteine pairing not given here; also: displayed on phage as fusion to pIII, linker, pIII sequence and order not given here
notes: as for B3
B24: Phage-539 (peptide)
peptide: YCEGHLPEYMLKCL
modifications: cysteine pairing not given here; also: displayed on phage as fusion to pIII, linker, pIII sequence and order not given here
notes: as for B3
B25: Phage-720 (peptide)
peptide: YCEGHLPMYFLKCM
notes: as for B1
B26: Phage-718 (peptide)
peptide: YCDGHLGIYMTKCL
notes: as for B1
B27: Phage-719 (peptide)
peptide: YCDGHLWEYMDKCL
notes: as for B1
B28: Phage-721 (peptide)
peptide: YCDGHLPIYMTQCL
notes: as for B1
B29: Phage-534 (peptide)
peptide: YCDGHSPLYMWKCL
modifications: cysteine pairing not given here; also: displayed on phage as fusion to pIII, linker, pIII sequence and order not given here
notes: as for B3
B30: Phage-709 (peptide)
peptide: YCEGHLSQYMQKCL
notes: as for B1
B31: Phage-712 (peptide)
peptide: YCDGHLPQYMSKCL
notes: as for B1
B32: Phage-716 (peptide)
peptide: YCDGHMPQYMSKCL
notes: as for B1

Assays:
[1] = biological target: T1, Anti-CD28 Fab (SEQ ID NOs: 696, 697); assay: phage ELISA; Fab-coated wells pre-incubated with CD28 antigen as competitor, anti-M13-HRP detection
T1 construct: In the phage ELISA the Fab was biotinylated and captured on neutravidin coated plates
T1 sequence (VH, as listed by the source, chain 1 of 2): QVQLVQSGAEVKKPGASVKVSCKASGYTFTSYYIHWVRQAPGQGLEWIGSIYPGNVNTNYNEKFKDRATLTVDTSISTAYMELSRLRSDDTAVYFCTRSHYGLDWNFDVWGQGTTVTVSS
T1 sequence (VL, as listed by the source, chain 2 of 2): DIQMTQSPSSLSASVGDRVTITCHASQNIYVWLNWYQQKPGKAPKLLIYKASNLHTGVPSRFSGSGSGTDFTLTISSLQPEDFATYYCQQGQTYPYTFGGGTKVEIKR
Description: (§1) After panning, phage infected bacteria were plated out and colonies picked into 96 well blocks. Clonal phage was then amplified and separated from bacterial cells via centrifugation.
(§2) Clonal phage were harvested as crude supematants and screened via standard ELISAs. […] Prior to the addition of clonal phage, wells were incubated with blocking buffer and CD28 antigen or blocking buffer alone. Without washing or aspirating, clonal phage supematants were then added to the wells and incubated for a short time. Wells were then washed followed by detection of bound phage using a horse radish conjugated anti-M13 antibody. Clonal phage of interest were then sent for sequence analysis.

[2] = biological target: T1, Anti-CD28 Fab (SEQ ID NOs: 696, 697); assay: phage ELISA; biotinylated anti-CD28 Fab on neutravidin plates, bound phage detected with anti-M13-HRP
Description: as §1, §2

[3] = biological target: T2, Anti-CD28 Fab (SEQ ID NOs: 696, 697); assay: phage binding ELISA; Fab wells pre-incubated with CD28 antigen as competitor, anti-M13 HRP
T2 construct: Biotinylated and captured on neutravidin coated plates in the phage ELISA
T2 sequence (VH, as listed by the source, chain 1 of 2): as the sequence (VH, as listed by the source, chain 1 of 2) above
T2 sequence (VL, as listed by the source, chain 2 of 2): as the sequence (VL, as listed by the source, chain 2 of 2) above
Description: as §1, §2

[4] = biological target: T2, Anti-CD28 Fab (SEQ ID NOs: 696, 697); assay: phage binding ELISA; biotinylated Fab on neutravidin plate, clonal phage supernatant, anti-M13 HRP;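 note: clones picked after panning, added to wells pre-incubated with CD28 antigen or with blocking buffer only, no wash before phage addition, bound phage read after washing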
Description: as §1, §2

[5] = biological target: T3, anti-CD28 scFv (VH - linker 1 - VL) (biotinylated (site not stated)); assay: same phage ELISA, wells pre-incubated with soluble CD28 (competitor)
[6] = biological target: T3, anti-CD28 scFv (VH - linker 1 - VL); assay: phage ELISA; biotinylated anti-CD28 scFv on neutravidin plate, clonal phage supernatant, anti-M13-HRP detection;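 note: before phage addition, wells were pretreated with soluble CD28 protein in blocking buffer, or with blocking buffer only as the comparison, then phage were added without washing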

T3 sequence (scFv, as listed by the source): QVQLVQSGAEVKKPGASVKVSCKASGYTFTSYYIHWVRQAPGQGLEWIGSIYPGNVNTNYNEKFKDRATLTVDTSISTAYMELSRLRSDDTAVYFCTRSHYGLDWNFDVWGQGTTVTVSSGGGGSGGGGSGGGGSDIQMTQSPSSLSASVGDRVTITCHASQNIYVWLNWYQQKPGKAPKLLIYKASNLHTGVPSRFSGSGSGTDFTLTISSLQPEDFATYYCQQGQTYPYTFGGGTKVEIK

Row | Binder | Phage binding ELISA, Anti-CD28 Fab signal in the presence of CD28 [1] | Phage binding ELISA, Anti-CD28 Fab signal [2] | Anti-CD28 Fab signal in the presence of CD28 [3] | Anti-CD28 Fab (SEQ ID NOs: 696, 697) signal [4] | other results
1 | B1 | 0.11 | 2 | – | – | –
2 | B2 | 0.07 | 1.99 | – | – | –
3 | B3 | – | – | 0.07 | 2.32 | –
4 | B4 | – | – | – | – | CD28 scFv signal in presence of CD28 [5]: 0.219; CD28 scFv signal [6]: 2.7
5 | B5 | 0.09 | 2 | – | – | –
6 | B6 | – | – | – | – | CD28 scFv signal in presence of CD28 [5]: 0.25; CD28 scFv signal [6]: 2.59
7 | B7 | – | – | – | – | CD28 scFv signal in presence of CD28 [5]: 0.293; CD28 scFv signal [6]: 2.7
8 | B8 | 0.08 | 1.98 | – | – | –
9 | B9 | – | – | – | – | CD28 scFv signal in presence of CD28 [5]: 0.29; CD28 scFv signal [6]: 2.59
10 | B10 | 0.18 | 1.99 | – | – | –
11 | B11 | 0.07 | 1.99 | – | – | –
12 | B12 | – | – | 0.08 | 2.34 | –
13 | B13 | – | – | 0.09 | 2.34 | –
14 | B14 | – | – | 0.14 | 2.35 | –
15 | B15 | – | – | 0.08 | 2.32 | –
16 | B16 | – | – | 0.11 | 2.34 | –

Row | Binder | Phage binding ELISA, Anti-CD28 Fab signal in the presence of CD28 [1] | Phage binding ELISA, Anti-CD28 Fab signal [2] | Anti-CD28 Fab signal in the presence of CD28 [3] | Anti-CD28 Fab (SEQ ID NOs: 696, 697) signal [4] | other results
17 | B17 | – | – | 0.15 | 2.35 | –
18 | B18 | – | – | 0.14 | 2.34 | –
19 | B19 | – | – | 0.08 | 2.34 | –
20 | B20 | – | – | – | – | CD28 scFv signal in presence of CD28 [5]: 0.218; CD28 scFv signal [6]: 2.57
21 | B21 | – | – | 0.11 | 2.33 | –
22 | B22 | – | – | 0.07 | 2.35 | –
23 | B23 | – | – | 0.08 | 2.32 | –
24 | B24 | – | – | 0.09 | 2.32 | –
25 | B25 | 0.06 | 1.97 | – | – | –
26 | B26 | 0.08 | 1.98 | – | – | –
27 | B27 | 0.06 | 1.97 | – | – | –
28 | B28 | 0.08 | 1.97 | – | – | –
29 | B29 | – | – | 0.08 | 2.34 | –
30 | B30 | 0.09 | 2 | – | – | –
31 | B31 | 0.1 | 2 | – | – | –
32 | B32 | 0.08 | 1.98 | – | – | –
